{"source": "paper PMC9017247", "target": "SARS-CoV-2 viral particles (spike protein as shown on the whole virus) (SARS-CoV-2)", "data": [{"substance": "recombinant griffithsin lectin protein (rGRFT) (from UniProt P84801 1-121) (natural protein)", "values": [{"measurement": "IC50 of rGRFT on SARS-CoV-2 (Ank2, Wuhan like) infection of Vero E6 cells, cytopathic effect reading; rGRFT from 6 uM to 15.4 pM mixed with infectious particles", "value": 33.2, "unit": "nM"}]}]}
